B1: S. cerevisiae Abp1 (full length; SH3 domain 535-592 mutated) / Hua2 (parent complex)
chain 1: MALEPIDYTTHSREIDAEYLKIVRGSDPDTTWLIISPNAKKEYEPESTGSSFHDFLQLFDETKVQYGLARVSPPGSDVEKIIIIGWCPDSAPLKTRASFAANFAAVANNLFKGYHVQVTARDEDDLDENELLMKISNAAGARYSIQTSSKQQGKASTPPVKKSFTPSKSPAPVSKKEPVKTPSPAPAAKISSRVNDNNDDDDWNEPELKERDFDQAPLKPNQSSYKPIGKIDLQKVIAEEKAKEDPRLVQKPTAAGSKIDPSSDIANLKNESKLKRDSEFNSFLGTTKPPSMTESSLKNDDDKVIKGFRNEKSPAQLWAERKAKQNSGNAETKAEAPKPEVPEDEPEGEPDVKDLKSKFEGLAASEKEEEEMENKFAPPPKKSEPTIISPKPFSKPQEPVKAEEAEQPKTDYKKIGNPLPGMHIEADNEEEPEENDDDWDDDEDEAAQPPLPSRNVASGAPVQKEEPEQEEIAPSLPSRNSIPAPKQEEAPEQAPEEEIEEEAEEAAPQLPSRSSAAPPPPPRRATPEKKPKENPWATAEYDYDAAEDNELTFVENDKIINIEFVDDDWWLGELEKDGSKGLFPSNYVSLGN
chain 2: MQQTKFGKMYLDHDSVVEYSEDEIVEADRITLGYKKRLSMIENQMRHLLEDFSLDVQQIEPILADLQKYYDAFLQLLQKRNKSLQCKRSTHQPVPSPMNSQTSTNAKVNLSGKLMKFQLNSVQKFDEENILRILQNKIEFEHYFQIDKGKKQKVLLLAVYQCLNGPTRLHKVLNIEGIIHNNSIRTILGKQVSSSKWTVFLYDVKLVLLAHRQDVPNLETSKMIVRYGDLFPCALYFKDHTAY

Results on five variants are retold here after publication PMC7954794 (2021).

The variants in the assay derive from B1. As to the kind of experiment: DHFR protein-fragment complementation in yeast (Abp1-DHFR F[1,2] x partner-DHFR F[3]), deep mutational scanning, second methotrexate selection vs reference; S. cerevisiae, DHFR-PCA selection in liquid with methotrexate at 30 C, two 72 h selections (the score uses the second); reference = the pre-selection culture.
For the variant chain 1 MALEPIDYTTHSREIDAEYLKIVRGSDPDTTWLIISPNAKKEYEPESTGSSFHDFLQLFDETKVQYGLARVSPPGSDVEKIIIIGWCPDSAPLKTRASFAANFAAVANNLFKGYHVQVTARDEDDLDENELLMKISNAAGARYSIQTSSKQQGKASTPPVKKSFTPSKSPAPVSKKEPVKTPSPAPAAKISSRVNDNNDDDDWNEPELKERDFDQAPLKPNQSSYKPIGKIDLQKVIAEEKAKEDPRLVQKPTAAGSKIDPSSDIANLKNESKLKRDSEFNSFLGTTKPPSMTESSLKNDDDKVIKGFRNEKSPAQLWAERKAKQNSGNAETKAEAPKPEVPEDEPEGEPDVKDLKSKFEGLAASEKEEEEMENKFAPPPKKSEPTIISPKPFSKPQEPVKAEEAEQPKTDYKKIGNPLPGMHIEADNEEEPEENDDDWDDDEDEAAQPPLPSRNVASGAPVQKEEPEQEEIAPSLPSRNSIPAPKQEEAPEQAPEEEIEEEAEEAAPQLPSRSSAAPPPPPRRATPEKKPKENPWATACYDYDAAEDNELTFVENDKIINIEFVDDDWWLGELEKDGSKGLFPSNYVSLGN [chain 1 E540C], the screen value was -1.63 DMS score: mean over two replicates of log2(f_test/f_ref + 0.5)/ln 2, minus the synonymous-codon median (not a log2 …. Under chain 1 MALEPIDYTTHSREIDAEYLKIVRGSDPDTTWLIISPNAKKEYEPESTGSSFHDFLQLFDETKVQYGLARVSPPGSDVEKIIIIGWCPDSAPLKTRASFAANFAAVANNLFKGYHVQVTARDEDDLDENELLMKISNAAGARYSIQTSSKQQGKASTPPVKKSFTPSKSPAPVSKKEPVKTPSPAPAAKISSRVNDNNDDDDWNEPELKERDFDQAPLKPNQSSYKPIGKIDLQKVIAEEKAKEDPRLVQKPTAAGSKIDPSSDIANLKNESKLKRDSEFNSFLGTTKPPSMTESSLKNDDDKVIKGFRNEKSPAQLWAERKAKQNSGNAETKAEAPKPEVPEDEPEGEPDVKDLKSKFEGLAASEKEEEEMENKFAPPPKKSEPTIISPKPFSKPQEPVKAEEAEQPKTDYKKIGNPLPGMHIEADNEEEPEENDDDWDDDEDEAAQPPLPSRNVASGAPVQKEEPEQEEIAPSLPSRNSIPAPKQEEAPEQAPEEEIEEEAEEAAPQLPSRSSAAPPPPPRRATPEKKPKENPWATAEYDYDAAEDNELTFVENDKIINIEFVDDDWWLGELVKDGSKGLFPSNYVSLGN [chain 1 E575V] stands -0.317 DMS score: mean over two replicates of log2(f_test/f_ref + 0.5)/ln 2, minus the synonymous-codon median (not a log2 …; under chain 1 MALEPIDYTTHSREIDAEYLKIVRGSDPDTTWLIISPNAKKEYEPESTGSSFHDFLQLFDETKVQYGLARVSPPGSDVEKIIIIGWCPDSAPLKTRASFAANFAAVANNLFKGYHVQVTARDEDDLDENELLMKISNAAGARYSIQTSSKQQGKASTPPVKKSFTPSKSPAPVSKKEPVKTPSPAPAAKISSRVNDNNDDDDWNEPELKERDFDQAPLKPNQSSYKPIGKIDLQKVIAEEKAKEDPRLVQKPTAAGSKIDPSSDIANLKNESKLKRDSEFNSFLGTTKPPSMTESSLKNDDDKVIKGFRNEKSPAQLWAERKAKQNSGNAETKAEAPKPEVPEDEPEGEPDVKDLKSKFEGLAASEKEEEEMENKFAPPPKKSEPTIISPKPFSKPQEPVKAEEAEQPKTDYKKIGNPLPGMHIEADNEEEPEENDDDWDDDEDEAAQPPLPSRNVASGAPVQKEEPEQEEIAPSLPSRNSIPAPKQEEAPEQAPEEEIEEEAEEAAPQLPSRSSAAPPPPPRRATPEKKPKENPWATAEYDYDAWEDNELTFVENDKIINIEFVDDDWWLGELEKDGSKGLFPSNYVSLGN [chain 1 A546W], -0.986 DMS score: mean over two replicates of log2(f_test/f_ref + 0.5)/ln 2, minus the synonymous-codon median (not a log2 ….

chain 1 MALEPIDYTTHSREIDAEYLKIVRGSDPDTTWLIISPNAKKEYEPESTGSSFHDFLQLFDETKVQYGLARVSPPGSDVEKIIIIGWCPDSAPLKTRASFAANFAAVANNLFKGYHVQVTARDEDDLDENELLMKISNAAGARYSIQTSSKQQGKASTPPVKKSFTPSKSPAPVSKKEPVKTPSPAPAAKISSRVNDNNDDDDWNEPELKERDFDQAPLKPNQSSYKPIGKIDLQKVIAEEKAKEDPRLVQKPTAAGSKIDPSSDIANLKNESKLKRDSEFNSFLGTTKPPSMTESSLKNDDDKVIKGFRNEKSPAQLWAERKAKQNSGNAETKAEAPKPEVPEDEPEGEPDVKDLKSKFEGLAASEKEEEEMENKFAPPPKKSEPTIISPKPFSKPQEPVKAEEAEQPKTDYKKIGNPLPGMHIEADNEEEPEENDDDWDDDEDEAAQPPLPSRNVASGAPVQKEEPEQEEIAPSLPSRNSIPAPKQEEAPEQAPEEEIEEEAEEAAPQLPSRSSAAPPPPPRRATPEKKPKENPWATAEYDYDAAEDRELTFVENDKIINIEFVDDDWWLGELEKDGSKGLFPSNYVSLGN [chain 1 N549R]: the screen value is -1.02 DMS score: mean over two replicates of log2(f_test/f_ref + 0.5)/ln 2, minus the synonymous-codon median (not a log2 …. chain 1 MALEPIDYTTHSREIDAEYLKIVRGSDPDTTWLIISPNAKKEYEPESTGSSFHDFLQLFDETKVQYGLARVSPPGSDVEKIIIIGWCPDSAPLKTRASFAANFAAVANNLFKGYHVQVTARDEDDLDENELLMKISNAAGARYSIQTSSKQQGKASTPPVKKSFTPSKSPAPVSKKEPVKTPSPAPAAKISSRVNDNNDDDDWNEPELKERDFDQAPLKPNQSSYKPIGKIDLQKVIAEEKAKEDPRLVQKPTAAGSKIDPSSDIANLKNESKLKRDSEFNSFLGTTKPPSMTESSLKNDDDKVIKGFRNEKSPAQLWAERKAKQNSGNAETKAEAPKPEVPEDEPEGEPDVKDLKSKFEGLAASEKEEEEMENKFAPPPKKSEPTIISPKPFSKPQEPVKAEEAEQPKTDYKKIGNPLPGMHIEADNEEEPEENDDDWDDDEDEAAQPPLPSRNVASGAPVQKEEPEQEEIAPSLPSRNSIPAPKQEEAPEQAPEEEIEEEAEEAAPQLPSRSSAAPPPPPRRATPEKKPKENPWATAEYDYDAAEDNELTFKENDKIINIEFVDDDWWLGELEKDGSKGLFPSNYVSLGN [chain 1 V554K]: the screen value is 1.28 DMS score: mean over two replicates of log2(f_test/f_ref + 0.5)/ln 2, minus the synonymous-codon median (not a log2 ….
